This is an account of results in article PMC10570696, “DNA-translocation-independent role of INO80 remodeler in DNA damage repairs” (The Journal of Biological Chemistry, 2023).

One assay addresses T1, INO80-C ΔN sub-complex (Saccharomyces cerevisiae, UniProt P53115).
T1 construct: ten-subunit sub-complex; Ino80 truncated (residues 470-1490, printed 'residue 470 from 1490') with C-terminal Twin-Strep tag; MultiBac baculovirus, High Five insect cells; with Actin-related protein 5; Chromatin-remodeling complex subunit IES6; Ino eighty subunit 2; RuvB-like protein 1; RuvB-like protein 2; Actin-related protein 4; Actin-like protein ARP8; Actin; Ino eighty subunit 4
As to the kind of experiment: NADH-coupled ATPase assay (pyruvate kinase / lactate dehydrogenase), absorbance at […] nm. Format: biochemical. As to conditions: nucleosome-stimulated (0-320 nM 0N80 mononucleosomes, Xenopus laevis histones); 80 nM complex; 1 mM ATP (2 mM stated elsewhere in the source); 2 mM MgCl2, 50 mM NaCl, pH 8, 30 °C.

Assay [1] has as its target human APE1 endonuclease (AP-endonuclease 1) (human) (UniProt P27695).
For assay [2] the target is unchanged. The source holds these as a separate data set.

Sequence of human APE1 endonuclease (AP-endonuclease 1) (human) (P27695 whole entry): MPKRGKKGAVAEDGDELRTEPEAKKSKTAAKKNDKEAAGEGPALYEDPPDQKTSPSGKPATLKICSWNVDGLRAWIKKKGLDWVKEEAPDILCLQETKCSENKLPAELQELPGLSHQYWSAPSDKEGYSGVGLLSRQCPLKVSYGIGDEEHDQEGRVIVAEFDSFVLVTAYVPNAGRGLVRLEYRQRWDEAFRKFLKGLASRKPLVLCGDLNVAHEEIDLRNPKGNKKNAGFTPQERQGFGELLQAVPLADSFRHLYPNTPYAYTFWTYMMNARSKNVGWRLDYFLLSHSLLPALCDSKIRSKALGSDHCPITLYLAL

In the case of `Nc1ncnc2c1ncn2[C@@H]1O[C@H](COP(=O)(O)OP(=O)(O)OP(=O)(O)O)[C@@H](O)[C@H]1O` [ATP], the “NADH-coupled ATPase assay (pyruvate kinase / lactate dehydrogenase), absorbance” value at INO80-C ΔN sub-complex was “conducted measurements of nucleosome-stimulated ATPase activity of INO80-C ΔN through a NADH+-coupled assay”.

With “endogenous yeast INO80-C complex (from UniProt P53115 1-1489; P53946 1-755; P32617 1-166; P40154 1-320; Q03940 1-463; Q12464 1-471; P80428 1-489; Q12386 1-881; P60010 1-375; Q08561 1-116; P35189 1-244; Q03435 1-203; P43579 1-692; Q12345 1-250; P40060 1-125)”, in assay [1], the APE1 incision assay: percent of dTHF(SHL-6) nucleosomes (100 nM) cleaved over 30 min by 5 nM APE1 with 25 nM INO80-C, with ATP (approximately 40% with APE1 alone) came to 56%. The APE1 incision assay after pre-treatment of the APE1-INO80-C mixture at 37 °C for 20 min, with ATP: proportion of incised nucleosomes in assay [2] came out at 70%.
